Measurements from the supplement of paper PMC6757056.
± gives the standard deviation of the averaged measurements.

B1: library; a variant is named by its letters at N, in order (parent)
chain: GCUGUCACCGAGAAACUGUGAAGUAUAUCUUAAACCUGGGCACUUAAAAGAUAUAUGGAGUUAGUAGUGCAACCUGCUCGGUCUGAUGAGUCCNNNNNNGGACGAAACAGC

What was measured:
cyclic di-GMP [1] = variants of: B1; experiment: normalized RNA/DNA level without ligand (relative to sTRSVctl = 100) (log10 (% of sTRSVctl)); HEK293T; ligand: cyclic di-GMP (c-di-GMP-II aptamer); higher = less ribozyme self-cleavage, higher mRNA level; conditions: reporter: mCherry (pCS4076), ligand present: no
Outline: (§1)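 Total RNA, extracted with EDTA 72 h after HEK293T cells were transfected with 4 µg per 6-well well of reporter-linked ribozyme switch library plasmids, was reverse-transcribed, amplified, barcoded and sequenced. Ligand, if used, was added 1 h before transfection. RNA level was derived from RNA reads divided by DNA reads and normalized to a spiked-in non-cleaving sequence or to the top sequences. This was multiplied by 100 and log10-transformed, with the top set of 25 sequences and a ≥100 DNA read minimum.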

cyclic di-GMP [2] = variants of: B1; experiment: normalized RNA/DNA level with ligand (relative to sTRSVctl = 100) (log10 (% of sTRSVctl)); HEK293T; ligand: cyclic di-GMP (c-di-GMP-II aptamer); ligand concentration (+) RNA-Seq: 1 mM; higher = less ribozyme self-cleavage, higher mRNA level; conditions: reporter: mCherry (pCS4076), ligand present: yes
Outline: as §1

Row | Variant | normalized RNA/DNA level without ligand (log10) (cyclic di-GMP [1]) | normalized RNA/DNA level with ligand (log10) (cyclic di-GMP [2])
1 | CGCAGU | 1.679 ± 0.005 | 1.82 ± 0.092
2 | UUACAA | 1.639 ± 0.0043 | 1.82 ± 0.07
3 | UUACAC | 1.73 ± 0.034 | 1.84 ± 0.11
4 | AUCCUC | 1.823 ± 0.0034 | 1.94 ± 0.079
5 | CAUAAG | 1.706 ± 0.013 | 1.82 ± 0.1
6 | GGCGUG | 1.75 ± 0.017 | 1.86 ± 0.15
7 | UACUUG | 1.734 ± 0.0022 | 1.89 ± 0.063
8 | GGCUUU | 1.73 ± 0.03 | 1.88 ± 0.075
9 | CCCAAC | 1.61 ± 0.037 | 1.82 ± 0.086
10 | UGGGCC | 1.94 ± 0.036 | 1.97 ± 0.081
11 | UGGGCA | 1.835 ± 0.0077 | 1.93 ± 0.08
12 | CUUCAC | 1.734 ± 0.0076 | 1.86 ± 0.088
13 | UAAAAA | 1.65 ± 0.048 | 1.78 ± 0.12
14 | AUCUUG | 1.657 ± 0.0055 | 1.81 ± 0.093
15 | AGUUAA | 1.52 ± 0.08 | 1.68 ± 0.086
16 | GACCAU | 1.64 ± 0.022 | 1.79 ± 0.13
17 | UGCCAG | 1.7634 ± 0.0015 | 1.87 ± 0.087
18 | CUGGCA | 1.638 ± 0.015 | 1.73 ± 0.14
19 | GGGAUA | 1.54 ± 0.19 | 1.66 ± 0.044
20 | GCGGGU | 1.769 ± 0.0058 | 1.87 ± 0.12
21 | GAGUGC | 1.785 ± 0.006 | 1.86 ± 0.13
22 | ACAUGA | 1.3 ± 0.07 | 1.53 ± 0.13
23 | AAAAUA | 1.48 ± 0.041 | 1.69 ± 0.1
24 | GAAGUG | 1.732 ± 0.0044 | 1.81 ± 0.095

Row | Variant | normalized RNA/DNA level without ligand (log10) (cyclic di-GMP [1]) | normalized RNA/DNA level with ligand (log10) (cyclic di-GMP [2])
25 | CGAACG | 1.75 ± 0.056 | 1.9 ± 0.089
26 | UAACUG | 1.73 ± 0.017 | 1.84 ± 0.13
27 | GUGCUA | 1.646 ± 0.0015 | 1.8 ± 0.091
28 | AGAUUC | 1.7 ± 0.021 | 1.85 ± 0.093
29 | UGGCCU | 1.84 ± 0.12 | 1.97 ± 0.15
30 | CAGAAC | 1.54 ± 0.07 | 1.75 ± 0.089
31 | GAUGGU | 1.64 ± 0.057 | 1.8 ± 0.063
32 | GAUGGG | 1.54 ± 0.081 | 1.67 ± 0.16
33 | UCAGCA | 1.672 ± 0.004 | 1.82 ± 0.097
34 | GCGACA | 1.52 ± 0.091 | 1.73 ± 0.084
35 | CGCGAA | 1.23 ± 0.12 | 1.44 ± 0.11
36 | GCGUCU | 1.67 ± 0.03 | 1.83 ± 0.1
37 | AUUGUU | 1.59 ± 0.025 | 1.77 ± 0.12
38 | UCGGUG | 1.68 ± 0.049 | 1.78 ± 0.13
39 | CAACGA | 1.56 ± 0.063 | 1.73 ± 0.11
40 | AAGGAU | 1.49 ± 0.097 | 1.7 ± 0.096
41 | GUGAGG | 1.61 ± 0.06 | 1.8 ± 0.093
42 | GAGGUC | 1.68 ± 0.042 | 1.82 ± 0.11
43 | UUAUGU | 1.7 ± 0.024 | 1.84 ± 0.11
44 | GCAUUA | 1.47 ± 0.089 | 1.71 ± 0.12
45 | UAGCAG | 1.82 ± 0.032 | 1.85 ± 0.032
46 | GCCAGA | 1.48 ± 0.05 | 1.68 ± 0.1
47 | UGACGG | 1.68 ± 0.039 | 1.82 ± 0.11
48 | ACGCCG | 1.74 ± 0.046 | 1.85 ± 0.067

Row | Variant | normalized RNA/DNA level without ligand (log10) (cyclic di-GMP [1]) | normalized RNA/DNA level with ligand (log10) (cyclic di-GMP [2])
49 | UAAUAC | 1.68 ± 0.013 | 1.81 ± 0.075
50 | CACCGU | 1.706 ± 0.0036 | 1.81 ± 0.092
51 | UACCUA | 1.68 ± 0.018 | 1.82 ± 0.081
52 | UACCUC | 1.79 ± 0.0062 | 1.93 ± 0.093
53 | UGAGAG | 1.6931 ± 0.00099 | 1.87 ± 0.098
54 | UUAGUA | 1.609 ± 0.0054 | 1.79 ± 0.13
55 | CUACAG | 1.73 ± 0.023 | 1.87 ± 0.035
56 | UUUAAG | 1.72 ± 0.027 | 1.85 ± 0.11
57 | AGGAGC | 1.61 ± 0.065 | 1.7 ± 0.13
58 | GGAUAC | 1.67 ± 0.049 | 1.78 ± 0.16
59 | UUGCCA | 1.8 ± 0.08 | 1.82 ± 0.13
60 | UCCGUC | 1.75 ± 0.018 | 1.9 ± 0.14
61 | AACAAC | 1.542 ± 0.01 | 1.75 ± 0.11
62 | CCCCCU | 1.704 ± 0.0062 | 1.86 ± 0.13
63 | UGCACC | 1.74 ± 0.036 | 1.84 ± 0.14
64 | GGCUCU | 1.78 ± 0.041 | 1.92 ± 0.076
65 | GGCUCG | 1.78 ± 0.055 | 1.87 ± 0.036
66 | AAUGCU | 1.73 ± 0.036 | 1.85 ± 0.12
67 | AAUGCG | 1.704 ± 0.0078 | 1.82 ± 0.15
68 | GAAUGU | 1.579 ± 0.014 | 1.76 ± 0.07
69 | CGCACA | 1.41 ± 0.091 | 1.59 ± 0.11
70 | AAUGUA | 1.525 ± 0.01 | 1.64 ± 0.16
71 | UGCAAC | 1.728 ± 0.0076 | 1.87 ± 0.099
72 | UACCGU | 1.59 ± 0.027 | 1.75 ± 0.1

Row | Variant | normalized RNA/DNA level without ligand (log10) (cyclic di-GMP [1]) | normalized RNA/DNA level with ligand (log10) (cyclic di-GMP [2])
73 | CGAAGG | 1.634 ± 0.0028 | 1.82 ± 0.097
74 | ACGGUC | 1.637 ± 0.014 | 1.77 ± 0.17
75 | GUGAUA | 1.5 ± 0.034 | 1.7 ± 0.097
76 | GGAUCA | 1.63 ± 0.02 | 1.77 ± 0.13
77 | CGACCC | 1.753 ± 0.014 | 1.88 ± 0.1
78 | CGACCA | 1.667 ± 0.013 | 1.77 ± 0.12
79 | CGACCU | 1.54 ± 0.028 | 1.71 ± 0.09
80 | AGGGGG | 1.72 ± 0.026 | 1.81 ± 0.075
81 | AGGGGC | 1.69 ± 0.1 | 1.83 ± 0.091
82 | CUCCAC | 1.719 ± 0.016 | 1.84 ± 0.092
83 | ACCGCG | 1.72 ± 0.075 | 1.87 ± 0.099
84 | UUUACC | 1.75 ± 0.028 | 1.87 ± 0.058
85 | AGAGUG | 1.72 ± 0.029 | 1.8 ± 0.09
86 | AGAGUA | 1.66 ± 0.029 | 1.73 ± 0.081
87 | UGGUUU | 1.761 ± 0.011 | 1.88 ± 0.12
88 | ACCGAU | 1.48 ± 0.072 | 1.67 ± 0.091
89 | AUCCGU | 1.74 ± 0.041 | 1.89 ± 0.12
90 | AUCCGA | 1.56 ± 0.017 | 1.73 ± 0.15
91 | UUGCAU | 1.669 ± 0.0095 | 1.81 ± 0.081
92 | CUUGGG | 1.74 ± 0.031 | 1.88 ± 0.13
93 | AUGUUU | 1.56 ± 0.034 | 1.77 ± 0.15
94 | UUCUGC | 1.784 ± 0.003 | 1.92 ± 0.08
95 | UUCUGG | 1.79 ± 0.04 | 1.89 ± 0.085
96 | UGUCGG | 1.74 ± 0.027 | 1.86 ± 0.077

Row | Variant | normalized RNA/DNA level without ligand (log10) (cyclic di-GMP [1]) | normalized RNA/DNA level with ligand (log10) (cyclic di-GMP [2])
97 | AGUGCG | 1.7 ± 0.058 | 1.85 ± 0.095
98 | AAUUCC | 1.79 ± 0.028 | 1.88 ± 0.14
99 | AGCAAG | 1.51 ± 0.09 | 1.68 ± 0.079
100 | GCGCGC | 1.64 ± 0.07 | 1.8 ± 0.11
101 | AAGUGC | 1.666 ± 0.0039 | 1.82 ± 0.14
102 | UAUAAG | 1.66 ± 0.03 | 1.82 ± 0.14
103 | UAUAAC | 1.697 ± 0.015 | 1.85 ± 0.12
104 | UCAGGU | 1.58 ± 0.12 | 1.76 ± 0.12
105 | UCACGG | 1.82 ± 0.07 | 1.9 ± 0.1
106 | UUUUUU | 1.77 ± 0.056 | 1.88 ± 0.097
107 | UUUUUG | 1.77 ± 0.028 | 1.87 ± 0.088
108 | CUCUCC | 1.81 ± 0.029 | 1.91 ± 0.11
109 | CCCAGG | 1.77 ± 0.025 | 1.89 ± 0.077
110 | AUACCA | 1.663 ± 0.0032 | 1.79 ± 0.11
111 | AGCGCU | 1.7 ± 0.044 | 1.82 ± 0.17
112 | AGCGCA | 1.661 ± 0.005 | 1.78 ± 0.12
113 | GUAAGU | 1.65 ± 0.033 | 1.77 ± 0.061
114 | GAGGGC | 1.66 ± 0.057 | 1.82 ± 0.077
115 | GAUUUG | 1.6 ± 0.025 | 1.76 ± 0.11
116 | GUGGGA | 1.53 ± 0.073 | 1.72 ± 0.07
